Measurements: patent US20080058263A1 (published 2008)
Changes are numbered by the printed parent chain.

T1: VEGFR-3-Fc (UniProt P35916 25-328)
T1 construct: domain: first three Ig domains; conditioned supernatant of 293T cells; also called VEGFR-3-Fc fusion protein; not shown: Fc fragment of the pIg vector
T1 sequence (looked up): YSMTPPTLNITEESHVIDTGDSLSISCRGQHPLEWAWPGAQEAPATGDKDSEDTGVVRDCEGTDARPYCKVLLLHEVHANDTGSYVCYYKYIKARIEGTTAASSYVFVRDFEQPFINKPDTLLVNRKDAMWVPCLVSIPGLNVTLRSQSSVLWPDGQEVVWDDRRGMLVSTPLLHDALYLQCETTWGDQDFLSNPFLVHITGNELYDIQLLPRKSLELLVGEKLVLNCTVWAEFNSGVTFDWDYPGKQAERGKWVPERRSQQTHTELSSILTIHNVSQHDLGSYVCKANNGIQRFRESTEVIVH

B1: 32-13 (ligand)
chain: GQNHHEVVKSIDNEWRKTQCMPIETLVDIFQEFGVATNTFFKPPCVSVYRCGGCCNDEGLECVPTEESNITMQIMRITVPLSQGPKPVTISFANHTSCRCMSKLD
B2: 51-1 (ligand)
chain: AHYNTEILKSIDNEWRKTQCMPIETLVDIFQEYPDEIEYIFKPSCVPLMRCGGCCNDEGLECVPTEESNITMQIMRIKPHQGQHIGEMSFLQHNKCECRPKKD
B3: 51-7 (ligand)
chain: B2 chain with D57S, E61Q, L91A, Q92N, N94T, K95S, E97R, R99M, P100S, K102L
B4: 51-3 (ligand)
chain: B2 chain with D57S, E61Q
B5: 51-5 (ligand)
chain: B2 chain with L91A, Q92N, N94T, K95S, E97R, R99M, P100S, K102L
B6: 51-2 (ligand)
chain: AHYNTEILKSIDNEWRKTQCMPIETLVDIFQEYPDEIEYIFKPSCVPLMRCGGCCNDEGLECMNTSTSYLSKTLFEIKPHQGQHIGEMSFLQHNKCECRPKKD
B7: 51-4 (ligand)
chain: B6 chain with D57S, E61Q
B8: 51-8 (ligand)
chain: B6 chain with D57S, E61Q, L91A, Q92N, N94T, K95S, E97R, R99M, P100S, K102L
B9: 21-13 (ligand)
chain: AHYNTEILKSIDNEWRKTQCMPREVCIDVGKEYPDEIEYIFKPSCVPLMRCGGCCNDEGLECVPTEESNITMQIMRITVPLSQGPKPVTISFANHTSCRCMSKLD
B10: 51-15 (ligand)
chain: B9 chain with R23I, V25T, C26L, I27V, V29I, G30F, K31Q, D57S, E61Q
B11: 51-13 (ligand)
chain: B9 chain with R23I, V25T, C26L, I27V, V29I, G30F, K31Q
B12: 51-9 (ligand)
chain: AHYNTEILKSIDNEWRKTQCMPIETLVDIFQEYPDEIEYIFKPSCVPLMRCGGCCNDEGLECVPTEESNITMQIMRITVPLSQGPKPVTISFLQHNKCECRPKKD
B13: 51-11 (ligand)
chain: B12 chain with D57S, E61Q
B14: 24-12 (ligand)
chain: AHYNTEILKSIDNEWRKTQCMPREVCIDVGKEFGVATNTFFKPSCVPLMRCGGCCNSEGLQCMNTSTSYLSKTLFEITVPLSQGPKPVTISFLQHNKCECRPKKD
B15: 21-12 (ligand)
chain: B14 chain with F33Y, G34P, V35D, A36E, T37I, N38E, T39Y, F40I
B16: 32-1 (ligand)
chain: GQNHHEVVKSIDNEWRKTQCMPIETLVDIFQEFGVATNTFFKPPCVSVYRCGGCCNDEGLECVPTEESNITMQIMRIKPHQGQHIGEMSFLQHNKCECRPKKD
B17: 52-1 (ligand)
chain: B16 chain with G1A, Q2H, N3Y, H4N, H5T, V7I, V8L
B18: 32-7 (ligand)
chain: B16 chain with D57S, E61Q, L91A, Q92N, N94T, K95S, E97R, R99M, P100S, K102L
B19: 32-5 (ligand)
chain: B16 chain with L91A, Q92N, N94T, K95S, E97R, R99M, P100S, K102L
B20: 32-3 (ligand)
chain: B16 chain with D57S, E61Q
B21: 24-2 (ligand)
chain: AHYNTEILKSIDNEWRKTQCMPREVCIDVGKEFGVATNTFFKPSCVPLMRCGGCCNDEGLECMNTSTSYLSKTLFEIKPHQGQHIGEMSFLQHNKCECRPKKD
B22: 24-4 (ligand)
chain: B21 chain with D57S, E61Q
B23: 24-8 (ligand)
chain: B21 chain with D57S, E61Q, L91A, Q92N, N94T, K95S, E97R, R99M, P100S, K102L
B24: 32-6 (ligand)
chain: GQNHHEVVKSIDNEWRKTQCMPIETLVDIFQEFGVATNTFFKPPCVSVYRCGGCCNDEGLECMNTSTSYLSKTLFEIKPHQGQHIGEMSFANHTSCRCMSKLD
B25: 32-8 (ligand)
chain: B24 chain with D57S, E61Q
B26: 24-11 (ligand)
chain: AHYNTEILKSIDNEWRKTQCMPREVCIDVGKEFGVATNTFFKPSCVPLMRCGGCCNSEGLQCVPTEESNITMQIMRITVPLSQGPKPVTISFLQHNKCECRPKKD
B27: 24-15 (ligand)
chain: B26 chain with L93A, Q94N, N96T, K97S, E99R, R101M, P102S, K104L
B28: 24-13 (ligand)
chain: B9 chain with Y33F, P34G, D35V, E36A, I37T, E38N, Y39T, I40F

The binders below were run against T2, VEGFR-1-Fc (UniProt P17948 27-338) (assay: receptor-Fc IP).
T2 construct: domain: first three Ig domains; expressed in Drosophila S2 cells, purified on Protein A sepharose; also called VEGFR-1-Fc fusion protein; not shown: Fc fragment from the Signal-pIgPlus vector
Procedure, shortened: (§1)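 Binding of ligand from sample supernatant measured by pentahistidine-antibody immunoprecipitation. IP mix: PBS with 1.5% BSA, 0.06% Tween 20, 3 μg/ml heparin and 400 ng/ml fusion protein, added 1:2 to sample supernatant.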

T2 sequence (P17948 27-338): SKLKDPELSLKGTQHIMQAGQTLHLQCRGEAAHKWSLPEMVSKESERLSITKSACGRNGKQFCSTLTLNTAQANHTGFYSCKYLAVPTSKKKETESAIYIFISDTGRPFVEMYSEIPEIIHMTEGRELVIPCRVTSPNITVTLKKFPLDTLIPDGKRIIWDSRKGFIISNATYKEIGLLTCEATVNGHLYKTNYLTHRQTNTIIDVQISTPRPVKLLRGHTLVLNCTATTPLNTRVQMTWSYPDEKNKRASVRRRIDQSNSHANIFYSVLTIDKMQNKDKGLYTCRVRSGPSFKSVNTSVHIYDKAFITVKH

Row | binding result | Binder
1 | no binding | B1
2 | no binding | B2
3 | no binding | B3
4 | no binding | B4
5 | no binding | B5
6 | no binding | B6
7 | no binding | B7
8 | no binding | B8
9 | no binding | B9
10 | no binding | B10
11 | no binding | B11
12 | no binding | B12
13 | no binding | B13
14 | no binding | B14
15 | no binding | B15
16 | no binding | B16
17 | no binding | B17
18 | no binding | B18
19 | no binding | B19
20 | no binding | B20
21 | no binding | B21
22 | no binding | B22
23 | no binding | B23
24 | no binding | B24
25 | no binding | B25
26 | no binding | B26
27 | no binding | B27
28 | no binding | B28

The binders below were run against T3, VEGFR-2-Fc (UniProt P35968 20-322) (assay: receptor-Fc IP).
T3 construct: domain: first 3 Ig domains; conditioned supernatant of 293T cells; also called VEGFR-2-Fc fusion protein; not shown: Fc fragment of the pIg vector
Procedure, shortened: as §1

T3 sequence (P35968 20-322): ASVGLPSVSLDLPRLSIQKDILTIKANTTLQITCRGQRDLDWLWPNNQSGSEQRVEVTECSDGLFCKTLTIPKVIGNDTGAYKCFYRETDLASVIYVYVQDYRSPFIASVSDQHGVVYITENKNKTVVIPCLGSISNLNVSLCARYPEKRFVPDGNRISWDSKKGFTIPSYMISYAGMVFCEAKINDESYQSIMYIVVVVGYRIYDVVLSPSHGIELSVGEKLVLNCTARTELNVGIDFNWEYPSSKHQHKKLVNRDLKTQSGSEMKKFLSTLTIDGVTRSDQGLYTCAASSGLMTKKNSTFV

Row | binding result | Binder
29 | no binding | B1
30 | no binding | B2
31 | no binding | B3
32 | no binding | B4
33 | no binding | B5
34 | no binding | B6
35 | no binding | B7
36 | no binding | B8
37 | no binding | B9
38 | no binding | B10
39 | no binding | B11
40 | no binding | B12
41 | no binding | B13
42 | no binding | B14
43 | no binding | B15
44 | no binding | B16
45 | no binding | B17
46 | no binding | B18
47 | no binding | B19
48 | no binding | B20
49 | no binding | B21
50 | no binding | B22
51 | no binding | B23
52 | no binding | B24
53 | no binding | B25
54 | no binding | B26
55 | no binding | B27
56 | no binding | B28

What follows are binders tested against T1, VEGFR-3-Fc (assay: receptor-Fc IP).
Procedure, shortened: as §1

Row | binding result | Binder
57 | no binding | B1
58 | no binding | B2
59 | no binding | B3
60 | no binding | B4
61 | no binding | B5
62 | no binding | B6
63 | no binding | B7
64 | no binding | B8
65 | no binding | B9
66 | no binding | B10
67 | no binding | B11
68 | no binding | B12
69 | no binding | B13
70 | no binding | B14
71 | no binding | B15
72 | no binding | B16
73 | no binding | B17
74 | no binding | B18
75 | no binding | B19
76 | no binding | B20
77 | no binding | B21
78 | no binding | B22
79 | no binding | B23
80 | no binding | B24
81 | no binding | B25
82 | no binding | B26
83 | no binding | B27
84 | no binding | B28
